Reference: PMC4288179, “Synergic interplay of the La motif, RRM1 and the interdomain linker of LARP6 in the recognition of collagen mRNA expands the RNA binding repertoire of the La module”

Target: T1, HsLARP6 La module (70-300) (Homo sapiens, UniProt Q9BRS8 70-300)
T1 sequence: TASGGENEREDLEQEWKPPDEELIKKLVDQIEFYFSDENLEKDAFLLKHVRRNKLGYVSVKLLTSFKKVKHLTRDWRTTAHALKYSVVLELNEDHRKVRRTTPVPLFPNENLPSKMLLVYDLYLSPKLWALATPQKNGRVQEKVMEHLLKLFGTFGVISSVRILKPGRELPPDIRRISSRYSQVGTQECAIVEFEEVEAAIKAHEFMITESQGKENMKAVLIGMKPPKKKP
Assay: ITC; ITC: 20 mM Tris pH 7.25, 100 mM KCl, 5 mM MgCl2, 1 mM DTT, 298 K; protein titrated into RNA
Conditions: protein: recombinant, tags: N-terminal His6, TEV-cleaved for initial ITC

CAAAGAGUCUACAUGGGUCAUGUUCAGCUUUG (structured_RNA) [32 nt RNA]
Kd (stem-loop with internal bulge): 0.125 µM

UUUU (ssRNA) [UUUUOH RNA]
Kd (single strand): 6 µM
